# Assay results as given in patent publication US20120178701A1 (PALATIN TECHNOLOGIES, published 2012).
# Numbered stars: 1 amine (or outer) side, 2 acyl side, 3 side chain; on linkers, the order of the positions; unused ones are H or OH. Bridge positions count the residues as written; N and C are the ends. Square brackets hold non-standard residues; d marks the D form. * marks the point of attachment. Hyp(Bzl) = O-benzyl-hydroxyproline, O=C([C@@H]1C[C@@H](OCc2ccccc2)CN1[*:1])[*:2]; Thr(Bzl) = O-benzyl-threonine, C[C@@H](OCc1ccccc1)[C@H](N[*:1])C(=O)[*:2]; Pro(trans-4-NH2) = O=C([C@@H]1C[C@@H](N[*:3])CN1[*:1])[*:2]; Phe(3-CONH2) = NC(=O)c1cccc(C[C@H](N)C(=O)O)c1; Phe(4-CONH2) = NC(=O)c1ccc(C[C@H](N)C(=O)O)cc1; Met(O2) = CS(=O)(=O)CC[C@H](N)C(=O)O; Hyp = O=C(O)[C@@H]1C[C@@H](O)CN1; Met(O) = CS(=O)CC[C@H](N)C(=O)O; Cit = NC(=O)NCCC[C@H](N)C(=O)O; Orn = NCCC[C@H](N)C(=O)O; Dab = NCC[C@H](N)C(=O)O; Pentanoyl = CCCCC(=O)*
# Molecular target: T1, human recombinant melanocortin-4 receptor (human, UniProt P32245 1-332)
# T1 construct: whole, on cells; cAMP assays used the whole cells; also called hMC4-R; MC4-R
# T1 sequence (P32245 whole entry): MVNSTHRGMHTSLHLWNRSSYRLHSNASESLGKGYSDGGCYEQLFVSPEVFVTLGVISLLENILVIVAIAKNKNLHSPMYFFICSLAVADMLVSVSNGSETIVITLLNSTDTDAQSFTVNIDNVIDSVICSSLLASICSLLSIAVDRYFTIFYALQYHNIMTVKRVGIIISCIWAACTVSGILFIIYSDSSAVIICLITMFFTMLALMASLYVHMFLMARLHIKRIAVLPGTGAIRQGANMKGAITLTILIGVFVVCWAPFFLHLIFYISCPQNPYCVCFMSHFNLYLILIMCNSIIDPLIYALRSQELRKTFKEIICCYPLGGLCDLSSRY
# Experiment: competitive inhibition of [I125]-NDP-α-MSH, hMC4-R HEK-293 membranes
# Procedure: A competitive inhibition binding assay is performed using membrane homogenates prepared from HEK-293 cells that express recombinant hMC4-R, hMC3-R, or hMC5-R, and from B-16 mouse melanoma cells (containing endogenous MC1-R). In some instances, HEK-293 cells that express recombinant hMC1-R were employed. In the examples that follow, all MC3-R, MC4-R and MC5-R values are for human recombinant receptors. […] Membrane homogenates were incubated with 0.2 nM (for hMC4-R) 0.4 nM (for MC3-R and MC5-R) or 0.1 nM (for mouse B16 MC1-R or hMC1-R) [I¹²⁵]-NDP-α-MSH (Perkin Elmer) and increasing concentrations of test peptides of the present invention in buffer containing 25 mM HEPES buffer (pH 7.5) with 100 mM NaCl, 2 mM CaCl₂, 2 mM MgCl₂, 0.3 mM 1,10-phenanthroline, and 0.2% bovine serum albumin. After incubation for 60 minutes at 37° C., the assay mixture was filtered and the membranes washed three times with ice-cold buffer. Filters were dried and counted in a gamma counter for bound radioactivity. […] Maximal specific binding (100%) was defined as the difference in radioactivity (cpm) bound to cell membranes in the absence and presence of 1 μM NDP-α-MSH. […] Each assay was conducted in triplicate and the actual mean values are described, with results less than 0% reported as 0%. Ki values for test peptides of the present invention were determined using Graph-Pad Prism® curve-fitting software.
# (§1) 9.1 Peptides of the following structures were synthesized by the general methods described above, and averaged MC4-R Ki values for peptides were determined as indicated. […] Ki values marked “ND” were not determined.
row,Binder,Ki [nM]
1,"H-R[Orn]H[dF]RWE-NH2 (lactam 2-7, also called peptide No. 99) [Arg-cyclo(Orn-His-D-Phe-Arg-Trp-Glu)-NH2]",6
2,"RKXFRWD (HELM PEPTIDE1{[ac].R.K.[Dab].[dF].R.W.D}$PEPTIDE1,PEPTIDE1,3:R3-8:R3$$$V2.0; SMILES CC(=O)N[C@@H](CCCNC(=N)N)C(=O)N[C@H]1CCCCNC(=O)C[C@@H](C(=O)O)NC(=O)[C@H](Cc2c[nH]c3ccccc23)NC(=O)[C@H](CCCNC(=N)N)NC(=O)[C@@H](Cc2ccccc2)NC(=O)[C@H](CCN)NC1=O, also called peptide No. 131) [Ac-Arg-cyclo(Lys-Dab-D-Phe-Arg-Trp-Asp)-OH]",35
3,"RKXFRWD (HELM PEPTIDE1{[ac].R.K.[Dab].[dF].R.W.D.[am]}$PEPTIDE1,PEPTIDE1,3:R3-8:R3$$$V2.0; SMILES CC(=O)N[C@@H](CCCNC(=N)N)C(=O)N[C@H]1CCCCNC(=O)C[C@@H](C(N)=O)NC(=O)[C@H](Cc2c[nH]c3ccccc23)NC(=O)[C@H](CCCNC(=N)N)NC(=O)[C@@H](Cc2ccccc2)NC(=O)[C@H](CCN)NC1=O, also called peptide No. 121) [Ac-Arg-cyclo(Lys-Dab-D-Phe-Arg-Trp-Asp)-NH2]",0.4
4,"Ac-RDQ[dF]RWK-OH (lactam 2-7, also called peptide No. 57) [Ac-Arg-cyclo(Asp-Gln-D-Phe-Arg-Trp-Lys)-OH]",115
5,"Ac-RD[Phe(3-CONH2)][dF]RWK-NH2 (lactam 2-7, also called peptide No. 49) [Ac-Arg-cyclo(Asp-Phe-(3-(C(═O)-NH2))-D-Phe-Arg-Trp-Lys)-NH2]",15
6,"Ac-RD[Met(O2)][dF]RWK-NH2 (lactam 2-7, also called peptide No. 77) [Ac-Arg-cyclo(Asp-Met-(O2)-D-Phe-Arg-Trp-Lys)-NH2]",7
7,"Ac-RDS[dF]RWK-NH2 (lactam 2-7, also called peptide No. 3) [Ac-Arg-cyclo(Asp-Ser-D-Phe-Arg-Trp-Lys)-NH2]",172
8,"Ac-RKQ[dF]RWD-NH2 (lactam 2-7, also called peptide No. 151) [Ac-Arg-cyclo(Lys-Gln-D-Phe-Arg-Trp-Asp)-NH2]",4
9,"RDHXRWK (N-acetyl; X4 = D-Nal 1 (D-3-(1-naphthyl)alanine); side-chain lactam Asp2-Lys7; C-terminal amide, also called peptide No. 19) [Ac-Arg-cyclo(Asp-His-D-Nal 1-Arg-Trp-Lys)-NH2]",3
10,"Ac-REH[dF]RW[Orn]-OH (lactam 2-7, also called peptide No. 82) [Ac-Arg-cyclo(Glu-His-D-Phe-Arg-Trp-Orn)-OH]",4
11,"Ac-RD[Hyp][dF]RWK-NH2 (lactam 2-7, also called peptide No. 79) [Ac-Arg-cyclo(Asp-Hyp-D-Phe-Arg-Trp-Lys)-NH2]",4
12,"QDXFRWK (HELM PEPTIDE1{[ac].Q.D.[Dab].[dF].R.W.K.[am]}$PEPTIDE1,PEPTIDE1,3:R3-8:R3$$$V2.0; SMILES CC(=O)N[C@@H](CCC(N)=O)C(=O)N[C@H]1CC(=O)NCCCC[C@@H](C(N)=O)NC(=O)[C@H](Cc2c[nH]c3ccccc23)NC(=O)[C@H](CCCNC(=N)N)NC(=O)[C@@H](Cc2ccccc2)NC(=O)[C@H](CCN)NC1=O, also called peptide No. 142) [Ac-Gln-cyclo(Asp-Dab-D-Phe-Arg-Trp-Lys)-NH2]",15
13,"Ac-R[Orn]H[dF]RWE-NH2 (lactam 2-7, also called peptide No. 75) [Ac-Arg-cyclo(Orn-His-D-Phe-Arg-Trp-Glu)-NH2]",0.6
14,"Ac-RE[Met(O)][dF]RW[Orn]-NH2 (lactam 2-7, also called peptide No. 111) [Ac-Arg-cyclo(Glu-Met(═O)-D-Phe-Arg-Trp-Orn)-NH2]",9
15,"Ac-RE[Met(O2)][dF]RW[Orn]-NH2 (lactam 2-7, also called peptide No. 100) [Ac-Arg-cyclo(Glu-Met(O2)-D-Phe-Arg-Trp-Orn)-NH2]",8
16,Ac-REK[dF]RW[Orn]-NH2 (lactam 2-7) [Ac-Arg-cyclo(Glu-Lys-D-Phe-Arg-Trp-Orn)-NH2],15
17,"Ac-RD[Pro(Bn)][dF]RWK-OH (lactam 2-7, also called peptide No. 55) [Ac-Arg-cyclo(Asp-Pro(Bn)-D-Phe-Arg-Trp-Lys)-OH]",12

# Second part, the binder after the results:
row,Ki [nM],Binder
1,3,"Ac-RD[Hyp(Bzl)][dF]RWK-OH (lactam 2-7, also called peptide No. 54) [Ac-Arg-cyclo(Asp-Hyp(Bzl)-D-Phe-Arg-Trp-Lys)-OH]"
2,30,"Ac-RDK[dF]RWK-NH2 (lactam 2-7, also called peptide No. 2) [Ac-Arg-cyclo(Asp-Lys-D-Phe-Arg-Trp-Lys)-NH2]"
3,1,"Ac-RD[Thr(Bzl)][dF]RWK-NH2 (lactam 2-7, also called peptide No. 14) [Ac-Arg-cyclo(Asp-Thr(Bzl)-D-Phe-Arg-Trp-Lys)-NH2]"
4,30,"Ac-RD[Phe(4-CONH2)][dF]RWK-NH2 (lactam 2-7, also called peptide No. 50) [Ac-Arg-cyclo(Asp-Phe(4-(C(═O)-NH2))-D-Phe-Arg-Trp-Lys)-NH2]"
5,100,"Ac-RDN[dF]RWK-OH (lactam 2-7, also called peptide No. 56) [Ac-Arg-cyclo(Asp-Asn-D-Phe-Arg-Trp-Lys)-OH]"
6,50,"XXNFRWE (HELM PEPTIDE1{[ac].[Orn].[Orn].N.[dF].R.W.E.[am]}$PEPTIDE1,PEPTIDE1,3:R3-8:R3$$$V2.0; SMILES CC(=O)N[C@@H](CCCN)C(=O)N[C@H]1CCCNC(=O)CC[C@@H](C(N)=O)NC(=O)[C@H](Cc2c[nH]c3ccccc23)NC(=O)[C@H](CCCNC(=N)N)NC(=O)[C@@H](Cc2ccccc2)NC(=O)[C@H](CC(N)=O)NC1=O, also called peptide No. 158) [Ac-Orn-cyclo(Orn-Asn-D-Phe-Arg-Trp-Glu)-NH2]"
7,365,"Pentanoyl-EH[dF]R[Dab]W-NH2 (lactam 1-5, also called peptide No. 153) [n-C4H9-CO-cyclo(Glu-His-D-Phe-Arg-Dab)-Trp-NH2]"
8,9,"Ac-RE[Orn][dF]RW[Orn]-OH (lactam 2-7, also called peptide No. 90) [Ac-Arg-cyclo(Glu-Orn-D-Phe-Arg-Trp-Orn)-OH]"
9,20,"RXQFRWX (N-acetyl; X2 = hGlu; D-Phe 4; X7 = Dab; side-chain lactam hGlu2-Dab7; C-terminal amide, also called peptide No. 147) [Ac-Arg-cyclo(hGlu-Gln-D-Phe-Arg-Trp-Dab)-NH2]"
10,4,"RXMFRWX (HELM PEPTIDE1{[ac].R.[O=C([C@H](CCCC(=O)[*:3])N[*:1])[*:2]].[CS(=O)(=O)CC[C@H](N[*:1])C(=O)[*:2]].[dF].R.W.[Dab].[am]}$PEPTIDE1,PEPTIDE1,3:R3-8:R3$$$V2.0; SMILES CC(=O)N[C@@H](CCCNC(=N)N)C(=O)N[C@H]1CCCC(=O)NCC[C@@H](C(N)=O)NC(=O)[C@H](Cc2c[nH]c3ccccc23)NC(=O)[C@H](CCCNC(=N)N)NC(=O)[C@@H](Cc2ccccc2)NC(=O)[C@H](CCS(C)(=O)=O)NC1=O) [Ac-Arg-cyclo(hGlu-Met(O2)-D-Phe-Arg-Trp-Dab)-NH2]"
11,6,"Ac-RE[Pro(trans-4-NH2)][dF]RW[Orn]-NH2 (lactam 2-7, also called peptide No. 112) [Ac-Arg-Cyclo(Glu-Pro(4R-NH2)-D-Phe-Arg-Trp-Orn)-NH2]"
12,167,"Ac-REN[dF]RW[Orn]-OH (lactam 2-7, also called peptide No. 91) [Ac-Arg-cyclo(Glu-Asn-D-Phe-Arg-Trp-Orn)-OH]"
13,873,"Ac-RDK[dF][Cit]WK-NH2 (lactam 2-7, also called peptide No. 116) [Ac-Arg-cyclo(Asp-Lys-D-Phe-Cit-Trp-Lys)-NH2]"
14,7,"Ac-RE[Orn](Ac)[dF]RW[Orn]-NH2 (lactam 2-7, also called peptide No. 149) [Ac-Arg-cyclo(Glu-Orn(Acetyl)-D-Phe-Arg-Trp-Orn)-NH2]"
15,5,"Ac-RD[Pro(trans-4-NH2)][dF]RWK-NH2 (lactam 2-7, also called peptide No. 80) [Ac-Arg-cyclo(Asp-Pro(4R-NH2)-D-Phe-Arg-Trp-Lys)-NH2]"

# Molecular target: T1, human recombinant melanocortin-4 …
# Experiment: competitive inhibition of Eu-NDP-α-MSH (TRF), hMC4-R HEK-293 membranes
# Procedure: After incubation for 90 minutes at 37° C., the reaction was stopped by filtration over AcroWell 96-well filter plates (Pall Life Sciences). The filter plates were washed 4 times with 200 μL of ice-cold phosphate-buffered saline. DELFIA Enhancement solution (PerkinElmer Life Sciences) was added to each well. The plates were incubated on a shaker for 15 minutes and read at 340 nm excitation and 615 nm emission wavelengths. Each assay was conducted in duplicate and mean values were utilized. Ki values were determined by curve-fitting with Graph-Pad Prism® software using a one-site fixed-slope competition binding model.
# as §1
row,Binder,Ki [nM]
1,"Ac-RD[Hyp(Bzl)][dF]RWK-NH2 (lactam 2-7, also called peptide No. 15) [Ac-Arg-cyclo(Asp-Hyp(Bzl)-D-Phe-Arg-Trp-Lys)-NH2]",0.7
2,"RDAFRWK (HELM PEPTIDE1{[ac].R.D.A.[dF].R.W.K}$PEPTIDE1,PEPTIDE1,3:R3-8:R3$$$V2.0; SMILES CC(=O)N[C@@H](CCCNC(=N)N)C(=O)N[C@H]1CC(=O)NCCCC[C@@H](C(=O)O)NC(=O)[C@H](Cc2c[nH]c3ccccc23)NC(=O)[C@H](CCCNC(=N)N)NC(=O)[C@@H](Cc2ccccc2)NC(=O)[C@H](C)NC1=O, also called peptide No. 52) [Ac-Arg-cyclo(Asp-Ala-D-Phe-Arg-Trp-Lys)-OH]",144
3,"Ac-RDA[dF]RWK-NH2 (lactam 2-7, also called peptide No. 9) [Ac-Arg-cyclo(Asp-Ala-D-Phe-Arg-Trp-Lys)-NH2]",19
